The chains are these.
B1: Hairpin Ribozyme (parent)
chain: GUCCUCUUUCACGUGCGCGUGAAAGAGAGAAGUGAACCAGAGAAACACACGUUGUGGUAUAUUACCUGGUA

This series covers variants of B1. Briefly: self-cleavage, relative activity (ratio to wild type); higher = more cleavage; co-transcriptional.
On to A23U G57A, for which the self-cleavage was 0.116.

With A22U G42U, the self-cleavage came out at 0.369.

Turning to A24U G69C, the self-cleavage turned out to be 0.271.

As to A24U A49U, the self-cleavage was 0.216.

A24U A49C: the self-cleavage was 0.104. Regarding A24G G68C, the self-cleavage was 0.232.

Regarding A24G G68U, the self-cleavage turned out to be 0.273. Next, A24U G32U: 0.128.

A24G A49C: the self-cleavage worked out at 0.163. As to A24C A35U, the self-cleavage was 0.938.

Take A23C U58C: the self-cleavage amounted to 0.821.

With A23C U58A, the self-cleavage worked out at 0.49. Next, A23C G69U: 0.297. The result for A24G U55A reads 0.272.

As for A24G U55C, the self-cleavage worked out at 0.196. Regarding A24G A71C, the self-cleavage is 1.4.

Regarding A23U A39C, the self-cleavage is 0.483. Next, G25A: 0.634; A23U A43U: 0.123. As for A23G G40A, the self-cleavage was found to be 0.234. In the case of A23G G40U, the self-cleavage amounted to 0.278.

For A24C A41G, the self-cleavage came out at 0.846.

Regarding A24C C65A, the self-cleavage came out at 0.922.

Regarding A24C C65G, the self-cleavage came to 0.296.

Turning to A24C C65U, the self-cleavage was 0.402. Next, A23C C37U: 0.444. A23U G54U: the self-cleavage is 0.538. With A23U G54C, the self-cleavage was 0.551.

For A23C A71C, the self-cleavage is 1.16. Take A23C A71G: the self-cleavage stood at 0.936. Take A23G A59U: the self-cleavage worked out at 0.0772. For the variant A23U U33G, the self-cleavage was determined as 0.158. The result for A23G C48A reads 0.123; that for A23G C48G, 0.159.

With A23C A44C, the self-cleavage worked out at 0.251.

Regarding A23C G54A, the self-cleavage was 0.416. Next, A23C G54U: 0.7; A23U U63G: 0.199; A24G A39C: 0.384.

A23U A47U: the self-cleavage turned out to be 0.105.

In the case of A23U A47G, the self-cleavage came to 0.11.

For the variant A22U G32U, the self-cleavage stood at 0.0918. On to A23G G29U, for which the self-cleavage came out at 0.164. The result for A23U A35U reads 0.754. The result for A23C G56C reads 0.191; that for A24G A61G, 0.254. As to A23G G57A, the self-cleavage amounted to 0.19. The result for A23G G57C reads 0.177. The result for A24U A41G reads 0.71. Next, A23U G27A: 0.394; G25A C37U: 0.494; A24G U33A: 0.118. A22U G40C: the self-cleavage came out at 0.122. On to A23C A41G, for which the self-cleavage stood at 0.928. In the case of G25A A31C, the self-cleavage worked out at 0.128. Take G25A A45U: the self-cleavage was 0.111. For the variant A23G U62A, the self-cleavage was 0.116.

Regarding A24G G56A, the self-cleavage was 0.187. Next, A23G G69U: 0.148.

Turning to A22U G68C, the self-cleavage is 0.252.

Take A23C G29A: the self-cleavage worked out at 0.177.

As to A23C G29U, the self-cleavage turned out to be 0.0906. Consider A24C G25A, for which the self-cleavage is 0.219. Consider A24C U60C, for which the self-cleavage is 0.972. Next, A24C U60G: 0.609; A24C U60A: 0.76. Next, A24G A36G: 0.679; A24G C65U: 0.371; A24G C65A: 0.706.

Consider A23C A49U, for which the self-cleavage was determined as 0.257. Next, A23C A49G: 0.393. The result for A23G U63A reads 0.113; that for G25A A35C, 0.738; that for A24C A59G, 0.0535.

Take A24G C66G: the self-cleavage came out at 0.226. The result for A24C A39G reads 0.28; that for A23U G51U, 0.893; that for G25A A64U, 0.173.

For the variant G25A A64C, the self-cleavage is 0.23. Next, A22U G57C: 0.175; A22U G57A: 0.121. With A23G A35G, the self-cleavage was found to be 0.939. The result for A24C G40C reads 0.185; that for A24C G40A, 0.335; that for A22U U33G, 0.174. The result for A22U U58C reads 1.04; that for A23C U70A, 0.872.

For the variant A23C U70G, the self-cleavage worked out at 0.685. Next, A22U U62G: 0.147; A24U G56C: 0.14; A23U A71U: 0.66. A23U A41U: the self-cleavage came out at 1.07. In the case of G25A A49U, the self-cleavage stood at 0.209. The result for A24U A71U reads 0.783. The result for A23G A71C reads 1.37; that for A24U A64G, 0.492; that for A24C U67C, 0.208. Take A23G U70G: the self-cleavage stood at 0.759. Next, A24U A31C: 0.163; A24G U70A: 0.746. For A23G U53A, the self-cleavage was found to be 0.727. As to A23C G27U, the self-cleavage was 0.253.

Regarding A24C A49C, the self-cleavage was found to be 0.308. The result for A24G A44U reads 0.0876; that for A24G A44C, 0.0644; that for A23G A28C, 0.641. For the variant A24C U58C, the self-cleavage was found to be 1.11. Next, A24C C46A: 0.134. For the variant A24C C46G, the self-cleavage came to 0.105. The result for A24C C46U reads 0.142; that for A24U A39C, 0.5. For A24U U52G, the self-cleavage was 0.744.

As to A24U U52A, the self-cleavage came to 0.925. As to A23U C46U, the self-cleavage stood at 0.131. With A24G A45U, the self-cleavage came to 0.145. The result for A24G A45C reads 0.235. Take A24U G27A: the self-cleavage turned out to be 0.334.

With A24U U62G, the self-cleavage came out at 0.131.

With A23U A28U, the self-cleavage stood at 0.674. The result for A23U A28C reads 0.613; that for A24U G40C, 0.116. With A23U U67G, the self-cleavage turned out to be 0.213. Next, A23U U67A: 0.237. Consider A23U U67C, for which the self-cleavage is 0.229. As for G25A A30G, the self-cleavage came out at 0.188.

Regarding G25A A30U, the self-cleavage worked out at 0.234. Regarding A23C A47U, the self-cleavage amounted to 0.0967. Next, A23C A47C: 0.417; A23U G42C: 0.259.

For A23U G42U, the self-cleavage was 0.246. The result for A22U U60A reads 0.77; that for A23U C37G, 0.438; that for A24U A28C, 0.449. In the case of A22U U55C, the self-cleavage worked out at 0.178.

Consider A22U U55A, for which the self-cleavage is 0.255. A24G G40C: the self-cleavage was found to be 0.188. Next, A24G G40A: 0.338. A23G C66A: the self-cleavage was 0.246. The result for A23G C66G reads 0.265; that for A24G G27C, 0.171. The result for A23G U33G reads 0.125; that for A23G U33A, 0.131. The result for A24G U60C reads 0.936; that for A24C C38G, 0.186; that for A24C C38U, 0.5. Turning to A24C U63G, the self-cleavage came out at 0.0877. Next, A24C U63A: 0.0496; A23U G56C: 0.174; A24G G69A: 0.392. In the case of A23G G42A, the self-cleavage was determined as 0.192. In the case of A23G G42U, the self-cleavage was found to be 0.359.

Turning to A24G G51C, the self-cleavage turned out to be 0.829. With A23G A61G, the self-cleavage was 0.136. Regarding A23G A61C, the self-cleavage worked out at 0.266. For the variant A24G A47U, the self-cleavage came to 0.0569. As for A23C G68U, the self-cleavage was found to be 0.262.

On to A23C G68C, for which the self-cleavage was 0.138. Next, A23U A49G: 0.356; A24U A59G: 0.183.

Consider A24U C50G, for which the self-cleavage amounted to 0.341. Next, A23C C38G: 0.0489; A24C G54U: 0.534. The result for A24C G54C reads 0.313; that for A24G A26G, 0.569; that for A24G A26C, 0.367. Next, A24G A26U: 0.661; A24C G69C: 0.218.
